Ends that are not written are not given here.
T1: GPCR135 (Homo sapiens, UniProt Q9NSD7)
T1 construct: expressed in transfected cells
T1 sequence (Q9NSD7 1-469): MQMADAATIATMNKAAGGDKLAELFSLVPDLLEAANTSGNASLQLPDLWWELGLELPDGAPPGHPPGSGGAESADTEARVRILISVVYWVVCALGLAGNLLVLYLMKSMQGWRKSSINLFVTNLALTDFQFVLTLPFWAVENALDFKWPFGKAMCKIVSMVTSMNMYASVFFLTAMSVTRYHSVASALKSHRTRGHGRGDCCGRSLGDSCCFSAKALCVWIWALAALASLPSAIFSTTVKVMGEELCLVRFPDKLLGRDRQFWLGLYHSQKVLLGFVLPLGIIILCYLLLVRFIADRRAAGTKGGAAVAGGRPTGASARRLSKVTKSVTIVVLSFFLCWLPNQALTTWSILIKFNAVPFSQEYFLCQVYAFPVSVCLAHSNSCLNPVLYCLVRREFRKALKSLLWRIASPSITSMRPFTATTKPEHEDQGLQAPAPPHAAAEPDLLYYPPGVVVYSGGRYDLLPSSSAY

T2: LGR7 (Homo sapiens, UniProt Q9HBX9)
T2 construct: Human LGR7 cDNA containing the complete coding region was PCR amplified; expressed in transfected cells
T2 sequence (Q9HBX9 1-757): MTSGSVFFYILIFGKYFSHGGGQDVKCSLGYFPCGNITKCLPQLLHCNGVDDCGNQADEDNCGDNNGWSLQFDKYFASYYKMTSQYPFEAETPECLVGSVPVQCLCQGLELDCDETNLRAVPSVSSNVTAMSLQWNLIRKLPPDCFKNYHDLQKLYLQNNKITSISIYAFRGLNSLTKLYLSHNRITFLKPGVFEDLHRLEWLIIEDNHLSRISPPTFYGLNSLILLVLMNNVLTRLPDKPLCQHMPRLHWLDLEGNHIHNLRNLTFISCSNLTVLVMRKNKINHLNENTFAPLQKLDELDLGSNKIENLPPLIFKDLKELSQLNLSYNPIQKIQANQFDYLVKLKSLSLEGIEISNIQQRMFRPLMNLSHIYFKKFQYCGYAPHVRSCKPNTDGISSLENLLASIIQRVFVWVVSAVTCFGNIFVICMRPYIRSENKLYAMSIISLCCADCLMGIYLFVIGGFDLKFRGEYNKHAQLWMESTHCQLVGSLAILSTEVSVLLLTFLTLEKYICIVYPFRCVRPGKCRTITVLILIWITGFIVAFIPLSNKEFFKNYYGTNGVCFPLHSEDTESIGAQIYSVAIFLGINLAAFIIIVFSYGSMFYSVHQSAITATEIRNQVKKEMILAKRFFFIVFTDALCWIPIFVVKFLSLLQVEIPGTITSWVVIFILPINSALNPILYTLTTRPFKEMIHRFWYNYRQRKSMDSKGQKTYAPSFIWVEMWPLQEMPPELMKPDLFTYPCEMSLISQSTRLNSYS


How the values were obtained:
[1] = biological target: T1, GPCR135; assay: Inhibition of forskolin stimulated β-galactosidase expression in SK-N-MC/β-gal cells; type: cell-based; conditions: for EC50 to activate GPCR135: inhibition of 5 μM forskolin stimulated β-galactosidase expression, mean ± SEM, n = 3
Procedure: (§8) Different chimeric polypeptides at various concentrations were added to SK-N-MC/β-gal cells expressing human GPCR135 (FIG. 4A) or GPCR142 (FIG. 4B) to inhibit forskolin stimulated β-galactosidase expression. […] In parallel, chimeric polypeptides at various concentrations were added to SK-N-MC/β-gal cells expressing human LGR7 (FIG. 4C) and LGR8 (FIG. 4D) to stimulate β-galactosidase expression. Relaxin-3 and INSL3 were used as positive controls for LGR7 and LGR8, respectively. Intracellular β-galactosidase activity was measured by a colorimetric assay using CRGP as the substrate and reading the absorbance at wavelength of 570 nm. Data represent mean±SEM (n=3).

[2] = biological target: T3, GPCR142 (Homo sapiens, UniProt Q8TDU9, L329S); assay: as above; type: cell-based; conditions: for EC50 to activate GPCR142: inhibition of 5 μM forskolin stimulated β-galactosidase expression, mean ± SEM, n = 3
T3 construct: expressed in transfected cells
Procedure: as §8

[3] = biological target: T2, LGR7; assay: Radioligand competition binding, [125I]-relaxin-3, live transfected COS-7 cells; conditions: [125I]-relaxin-3 100 pM; mean ± SEM, n = 3
Procedure: For GPCR135, GPCR142, and LGR7, [^125I]-relaxin-3 was used as the radioligand at a final concentration of 100 pM. Different unlabeled peptides were used in the binding assay as the competitors. […] Different unlabeled peptides including relaxin-3 chimeras at various concentrations were added to the binding assay as the competitors. Data represent mean±SEM (n=3).
Radioligand binding assays for LGR7 and LGR8 were performed using live COS-7 cells transiently transfected with LGR7 or LGR8 expression plasmids in 15-cm culture dishes using LipofectAmine (Invitrogen). Two days after transfection, the transfected cells were detached from the 15-cm culture dished using phosphate buffered saline (PBS) plus 10 mM EDTA, seeded into 96-well opaque poly-D-lysine coated culture plates and used for radioligand binding assays. For LGR7, [^125I]-relaxin-3 was used as the tracer. […] [^125I]-labeled tracer was added in binding reactions at a final concentration of 100 pM in binding buffer containing DMEM plus 50 mM HEPES and 1% bovine serum albumin. Unlabeled relaxin-3 and relaxin-3 chimeric polypeptides were added at various concentrations to the binding assays as the competitors, as indicated (FIG. 3). The binding mixtures were incubated at room temperature for 1 hour. The unbound radioligand was removed by aspiration of the binding buffer. The cells were washed with PBS. The bound radioligand was counted in a scintillation counter (TopCount/NTX). The results were analyzed using Prism 3.0 program (Graphpad, San Diego, Calif.). The IC50 values represent the ligand concentrations that inhibit 50% of the maximum specific binding.

[4] = biological target: T4, LGR8 (Homo sapiens, UniProt Q8WXD0); assay: Stimulation of β-galactosidase expression in SK-N-MC/β-gal cells; type: cell-based
T4 construct: Human LGR8 cDNA containing the complete coding region was PCR amplified; expressed in transfected cells
Procedure: (§1) FIGS. 1A-1D show the activation of GPCR135 and GPCR142 by relaxin-3 B-chain, but not of LGR7 or LGR8. In FIG. 1A, SK-N-MC/β-gal cells expressing human GPCR135 were stimulated with relaxin-3, relaxin-3 B-chain, porcine relaxin, or INSL3 at various concentrations to inhibit the forskolin stimulated β-galactosidase expression. Forskolin was added to cells at a final concentration of 5 μM to stimulate the β-galactosidase expression. FIG. 1B depicts results for SK-N-MC/β-gal cells expressing human GPCR142 stimulated as in FIG. 1A. In FIG. 1C, SK-N-MC/β-gal cells expressing human LGR7 were stimulated with relaxin-3, relaxin-3 B-chain, porcine relaxin, and INSL3 at various concentrations to induce the β-galactosidase expression. The intracellular β-galactosidase activities were measured by a colorimetric assay using CRGP as the substrate and reading the absorbance at a wavelength of 570 nm. For FIG. 1D, SK-N-MC/β-gal cells expressing human LGR8 were stimulated as in FIG. 1C.
(§2) FIGS. 4A-4D illustrate the evaluation of the agonist activity of relaxin-3 chimeric polypeptides in biofunctional assays. Different chimeric polypeptides at various concentrations were added to SK-N-MC/β-gal cells expressing human GPCR135 (FIG. 4A) or GPCR142 (FIG. 4B) to inhibit forskolin stimulated β-galactosidase expression. Human relaxin-3 was used as the positive control. In parallel, chimeric polypeptides at various concentrations were added to SK-N-MC/β-gal cells expressing human LGR7 (FIG. 4C) and LGR8 (FIG. 4D) to stimulate β-galactosidase expression. Relaxin-3 and INSL3 were used as positive controls for LGR7 and LGR8, respectively. Intracellular β-galactosidase activity was measured by a colorimetric assay using CRGP as the substrate and reading the absorbance at wavelength of 570 nm. Data represent mean±SEM (n=3).
(§3) It has been shown that synthetic human relaxin-3 B-chain alone, but not A-chain, is an agonist for both GPCR135 and GPCR142 (Liu et al., 2003, Journal of Biological Chemistry, 278:50754-50764 and Liu et al., 2003, Journal of Biological Chemistry, 278:50765-50770). Those studies were repeated herein in SK-N-MC/β-gal cells, which harbor a β-galactosidase gene under the control of a cAMP responsive element (CRE) (Liu et al., 2001, Molecular Pharmacology, 59:420-426). In such SK-N-MC/β-gal cells, an increase in intracellular cAMP concentration leads to increased β-galactosidase gene expression, the activity of which is measured using Chlorophenol Red-β-D-Galactopyranoside (CPRG) as the substrate.
(§4) The inventive chimeric polypeptides were each independently tested for their ability to activate either GPCR135, GPCR142, LGR7, or LGR8, respectively, in separate pools of SK-N-MC/β-gal cells (see supra), each pool stably expressing one of the respective receptors, as indicated (FIG. 4).
(§5) Cells were seeded in 96-well tissue culture plate at a density of 30,000 cells/well in MEM plus 10% fetal serum, sodium pyruvate, penicillin, streptomycin, and G418 (400 mg/L). For cells expressing GPCR135 or GPCR142, forskolin was added to cells at a final concentration of 5 μM to stimulate intracellular cAMP accumulation. Different concentrations of each of the inventive polypeptides were then added to the cells to inhibit the forskolin induced cAMP accumulation. For cells expressing LGR7 or LGR8, intracellular cAMP was stimulated with each of the inventive chimeric polypeptides at various concentrations.
(§6) For all cells, after adding the chimeric polypeptides, cells were incubated for 6 additional hours in 37° C. incubator. The media was then aspirated and the β-galactosidase activities measured as previously described (Liu et al., 2001, Molecular Pharmacology, 59:420-426). The results were analyzed by Prism 3.0 software. […]

[5] = biological target: T2, LGR7; assay: Binding of radioligands to COS-7 cells transfected with LGR7; conditions: radioligand 100 pM
Procedure: (§7) FIGS. 5A-5D illustrate a comparative analysis of the binding specificities of [^125I]-relaxin-3 and [^125I]-R3/I5 for GPCR135 and LGR7. COS-7 cells in 6-well culture dishes were transfected with human GPCR135 and LGR7, respectively. Mock transfected COS-7 cells were used as the negative controls. [^125I]-relaxin-3 (FIG. 5A) or [^125I]-R3/I5 (FIG. 5B) was added to cells at a final concentration of 100 pM either in the absence or presence of 1 uM of unlabeled relaxin-3 to determine total binding and non-specific binding, respectively. FIG. 5C depicts an autoradiogram of [^125]-relaxin-3 binding in rat brain sagittal section. FIG. 5D depicts an autoradiogram of non-specific binding of [^125]-relaxin-3 as determined in the presence of 100 nM of unlabeled relaxin-3. FIG. 5E depicts an autoradiogram of [^125]-R3/I5 binding in rat brain sagittal section. […] binding of [^125]-R3/I5 as determined in the presence of 100 nM of unlabeled relaxin-3.

[6] = biological target: T1, GPCR135; assay: Binding of radioligands to COS-7 cells transfected with GPCR135; conditions: radioligand 100 pM
Procedure: as §7

[7] = biological target: T2, LGR7; assay: Stimulation of β-galactosidase expression in SK-N-MC/β-gal cells; type: cell-based; conditions: ligand stimulated β-galactosidase expression; mean ± SEM, n = 3; read-out: EC50 to activate LGR7
Procedure: as §1, §2, §3, §4, §5, §6

T3 sequence (Q8TDU9 whole entry L329S): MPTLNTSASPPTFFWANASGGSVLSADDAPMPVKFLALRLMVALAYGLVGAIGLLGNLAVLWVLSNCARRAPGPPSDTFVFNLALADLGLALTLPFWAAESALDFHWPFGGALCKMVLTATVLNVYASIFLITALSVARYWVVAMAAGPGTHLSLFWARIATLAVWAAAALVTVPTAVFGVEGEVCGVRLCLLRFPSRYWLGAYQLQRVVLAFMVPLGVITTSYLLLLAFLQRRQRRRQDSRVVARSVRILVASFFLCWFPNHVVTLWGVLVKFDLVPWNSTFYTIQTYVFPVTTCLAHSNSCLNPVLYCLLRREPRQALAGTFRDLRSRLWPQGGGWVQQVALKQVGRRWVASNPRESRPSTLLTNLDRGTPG
T4 sequence (Q8WXD0 whole entry): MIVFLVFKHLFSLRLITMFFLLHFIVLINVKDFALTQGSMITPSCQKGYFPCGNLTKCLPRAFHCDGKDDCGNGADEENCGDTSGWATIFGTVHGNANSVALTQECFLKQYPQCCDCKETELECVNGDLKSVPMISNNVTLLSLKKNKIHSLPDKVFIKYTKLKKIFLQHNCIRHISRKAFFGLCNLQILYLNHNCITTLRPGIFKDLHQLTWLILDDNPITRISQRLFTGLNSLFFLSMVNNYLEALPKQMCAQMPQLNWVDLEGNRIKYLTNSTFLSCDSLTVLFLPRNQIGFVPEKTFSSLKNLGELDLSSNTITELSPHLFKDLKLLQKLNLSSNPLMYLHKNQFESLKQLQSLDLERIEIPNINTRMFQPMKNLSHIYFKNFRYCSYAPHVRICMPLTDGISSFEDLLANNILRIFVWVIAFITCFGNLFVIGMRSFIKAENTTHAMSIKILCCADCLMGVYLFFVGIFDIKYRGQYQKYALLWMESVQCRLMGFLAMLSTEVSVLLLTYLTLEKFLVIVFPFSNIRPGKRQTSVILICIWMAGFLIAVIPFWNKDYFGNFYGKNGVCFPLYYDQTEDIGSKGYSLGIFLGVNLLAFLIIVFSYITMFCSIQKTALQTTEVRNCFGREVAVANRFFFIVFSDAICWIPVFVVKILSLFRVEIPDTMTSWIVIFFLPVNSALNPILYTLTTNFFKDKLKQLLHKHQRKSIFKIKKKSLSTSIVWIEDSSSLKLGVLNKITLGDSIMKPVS

Row | Molecule | IC50 for binding LGR7 [3] | EC50 to activate GPCR135 [1] | EC50 to activate GPCR142 [2] | also measured
1 | CC[C@H](C)[C@H](NC(=O)[C@H](Cc1ccccc1)NC(=O)[C@H](CCC(=O)O)NC(=O)[C@H](CCCNC(=N)N)NC(=O)CNC(=O)[C@H](CS)NC(=O)[C@H](CC(C)C)NC(=O)[C@H](CCCNC(=N)N)NC(=O)[C@@H](NC(=O)CNC(=O)[C@H](Cc1ccc(O)cc1)NC(=O)[C@@H]1CCCN1C(=O)[C@H](C)NC(=O)[C@H](C)NC(=O)[C@@H](N)CCCNC(=N)N)C(C)C)C(=O)N[C@@H](CCCNC(=N)N)C(=O)N[C@@H](C)C(=O)N[C@H](C(=O)N[C@H](C(=O)N[C@@H](Cc1ccccc1)C(=O)N[C@H](C(=O)N[C@@H](CS)C(=O)NCC(=O)NCC(=O)N[C@@H](CO)C(=O)N[C@@H](CCCNC(=N)N)C(=O)N[C@@H](Cc1c[nH]c2ccccc12)C(=O)O)[C@@H](C)O)[C@@H](C)CC)C(C)C [relaxin-3 B-chain, reference compound] |  |  |  | EC50 ([1]; read-out: EC50 to activate GPCR135): 88 nM; EC50 ([2]; read-out: EC50 to activate GPCR142): 125 nM
2 | R3/I3: chimeric polypeptide: human relaxin-3 B-chain and INSL3 A-chain; mature polypeptide SEQ ID NO:21 (RAAPYGVRLCGREFIRAVIFTCGGSRWNPARYCCLSGCTQQDLLTLC; Human Relaxin-3/Insulin-like 3 chimeric mature polypeptide) | low nanomolar range | low nanomolar range | low nanomolar range | 
3 | R3/R1: chimeric polypeptide: human relaxin-3 B-chain and relaxin-1 A-chain; mature polypeptide SEQ ID NO:19 (RAAPYGVRLCGREFIRAVIFTCGGSRWPYVALFEKCCLIGCTKRSLAKYC; Human Relaxin-3/Relaxin-1 chimeric mature polypeptide) | low nanomolar range | low nanomolar range | low nanomolar range | activation of LGR8, in words ([4]; highest concentration tested 1 μM): marginal activity at the highest concentration tested (1 μM)
4 | R3/R2: chimeric polypeptide: human relaxin-3 B-chain and relaxin-2 A-chain; mature polypeptide SEQ ID NO:20 (RAAPYGVRLCGREFIRAVIFTCGGSRWQLYSALANKCCHVGCTKRSLARFC; Human Relaxin-3/Relaixin-2 chimeric mature polypeptide) | low nanomolar range | low nanomolar range | low nanomolar range | 
5 | [^125I]-relaxin-3: radioiodinated human relaxin-3 used as tracer (RAAPYGVRLCGREFIRAVIFTCGGSRWDVLAGLSSSCCKWGCSKSEISSLC; ends and bridges not checked; also: radioiodinated ([125I]), site not given here) [reference compound] |  |  |  | binding to LGR7, in words [5]: did; binding to GPCR135 expressing cells, in words [6]: high affinity
6 | porcine relaxin: porcine relaxin, reference ligand for LGR7 and LGR8 (protein) QSTNDFIKACGRELVRLWVEICGSVSWGRTALSLEEPQLETGPPAETMPSSITKDAEILKMMLEFVPNLPQELKATLSERQPSLRELQQSASKDSNLNFEEFKKIILNRQNEAEDKSLLELKNLGLDKHSRKKRLFRMTLSEKCCQVGCIRKDIARLC |  |  |  | EC50 ([4]; ligand stimulated β-galactosidase expression, mean ± SEM, n = 3, read-out: EC50 to activate LGR8): 1.5 nM; EC50 [7]: 0.25 nM
